Results reported in patent US11965039B2, “Compstatin analogues and their medical uses” (priority 2018, dated 2024).
Positions of bridges follow the written chain, without caps; N, C: chain ends. Non-standard residues stand in square brackets, D forms with d. Trp(1-Me) = Cn1cc(C[C@H](N)C(=O)O)c2ccccc21; 1Nal = N[C@@H](Cc1cccc2ccccc12)C(=O)O; 2Nal = N[C@@H](Cc1ccc2ccccc2c1)C(=O)O

B1: Compound 47 (peptide)
peptide: Ac-ICIWQDWGAHRCTGAES-NH2
modifications: disulfide 2-12
SMILES: CC[C@H](C)[C@H](NC(C)=O)C(=O)N[C@H]1CSSC[C@@H](C(=O)N[C@H](C(=O)NCC(=O)N[C@@H](C)C(=O)N[C@@H](CCC(=O)O)C(=O)N[C@@H](CO)C(N)=O)[C@@H](C)O)NC(=O)[C@H](CCCNC(=N)N)NC(=O)[C@H](Cc2c[nH]cn2)NC(=O)[C@H](C)NC(=O)CNC(=O)[C@H](Cc2c[nH]c3ccccc23)NC(=O)[C@H](CC(=O)O)NC(=O)[C@H](CCC(N)=O)NC(=O)[C@H](Cc2c[nH]c3ccccc23)NC(=O)[C@H]([C@@H](C)CC)NC1=O
B2: Compound 59 (peptide)
peptide: Ac-EGSAYCI[Trp(1-Me)]QDWGEHRCTE-NH2
modifications: disulfide 6-16
SMILES: CC[C@H](C)[C@@H]1NC(=O)[C@@H](NC(=O)[C@H](Cc2ccc(O)cc2)NC(=O)[C@H](C)NC(=O)[C@H](CO)NC(=O)CNC(=O)[C@H](CCC(=O)O)NC(C)=O)CSSC[C@@H](C(=O)N[C@H](C(=O)N[C@@H](CCC(=O)O)C(N)=O)[C@@H](C)O)NC(=O)[C@H](CCCNC(=N)N)NC(=O)[C@H](Cc2c[nH]cn2)NC(=O)[C@H](CCC(=O)O)NC(=O)CNC(=O)[C@H](Cc2c[nH]c3ccccc23)NC(=O)[C@H](CC(=O)O)NC(=O)[C@H](CCC(N)=O)NC(=O)[C@H](Cc2cn(C)c3ccccc23)NC1=O
B3: Compound 60 (peptide)
peptide: Ac-EGSAFCI[2Nal]QDWGEHRCTE-NH2
modifications: disulfide 6-16
SMILES: CC[C@H](C)[C@@H]1NC(=O)[C@@H](NC(=O)[C@H](Cc2ccccc2)NC(=O)[C@H](C)NC(=O)[C@H](CO)NC(=O)CNC(=O)[C@H](CCC(=O)O)NC(C)=O)CSSC[C@@H](C(=O)N[C@H](C(=O)N[C@@H](CCC(=O)O)C(N)=O)[C@@H](C)O)NC(=O)[C@H](CCCNC(=N)N)NC(=O)[C@H](Cc2c[nH]cn2)NC(=O)[C@H](CCC(=O)O)NC(=O)CNC(=O)[C@H](Cc2c[nH]c3ccccc23)NC(=O)[C@H](CC(=O)O)NC(=O)[C@H](CCC(N)=O)NC(=O)[C@H](Cc2ccc3ccccc3c2)NC1=O
B4: Compound 56 (peptide)
peptide: Ac-EGSAFCI[1Nal]QDWGEHRCTE-NH2
modifications: disulfide 6-16
SMILES: CC[C@H](C)[C@@H]1NC(=O)[C@@H](NC(=O)[C@H](Cc2ccccc2)NC(=O)[C@H](C)NC(=O)[C@H](CO)NC(=O)CNC(=O)[C@H](CCC(=O)O)NC(C)=O)CSSC[C@@H](C(=O)N[C@H](C(=O)N[C@@H](CCC(=O)O)C(N)=O)[C@@H](C)O)NC(=O)[C@H](CCCNC(=N)N)NC(=O)[C@H](Cc2c[nH]cn2)NC(=O)[C@H](CCC(=O)O)NC(=O)CNC(=O)[C@H](Cc2c[nH]c3ccccc23)NC(=O)[C@H](CC(=O)O)NC(=O)[C@H](CCC(N)=O)NC(=O)[C@H](Cc2cccc3ccccc23)NC1=O
B5: Compound 57 (peptide)
peptide: Ac-EGSAFCI[Trp(1-Me)]QDWGEHRCTE-NH2
modifications: disulfide 6-16
SMILES: CC[C@H](C)[C@@H]1NC(=O)[C@@H](NC(=O)[C@H](Cc2ccccc2)NC(=O)[C@H](C)NC(=O)[C@H](CO)NC(=O)CNC(=O)[C@H](CCC(=O)O)NC(C)=O)CSSC[C@@H](C(=O)N[C@H](C(=O)N[C@@H](CCC(=O)O)C(N)=O)[C@@H](C)O)NC(=O)[C@H](CCCNC(=N)N)NC(=O)[C@H](Cc2c[nH]cn2)NC(=O)[C@H](CCC(=O)O)NC(=O)CNC(=O)[C@H](Cc2c[nH]c3ccccc23)NC(=O)[C@H](CC(=O)O)NC(=O)[C@H](CCC(N)=O)NC(=O)[C@H](Cc2cn(C)c3ccccc23)NC1=O
B6: Compound 66 (peptide)
peptide: Ac-YCIWQDWGEHRCTGAES-NH2
modifications: disulfide 2-12
SMILES: CC[C@H](C)[C@@H]1NC(=O)[C@@H](NC(=O)[C@H](Cc2ccc(O)cc2)NC(C)=O)CSSC[C@@H](C(=O)N[C@H](C(=O)NCC(=O)N[C@@H](C)C(=O)N[C@@H](CCC(=O)O)C(=O)N[C@@H](CO)C(N)=O)[C@@H](C)O)NC(=O)[C@H](CCCNC(=N)N)NC(=O)[C@H](Cc2c[nH]cn2)NC(=O)[C@H](CCC(=O)O)NC(=O)CNC(=O)[C@H](Cc2c[nH]c3ccccc23)NC(=O)[C@H](CC(=O)O)NC(=O)[C@H](CCC(N)=O)NC(=O)[C@H](Cc2c[nH]c3ccccc23)NC1=O
B7: Compound 52 (peptide)
peptide: Ac-ICI[2Nal]QDWGEHRCTGAES-NH2
modifications: disulfide 2-12
SMILES: CC[C@H](C)[C@H](NC(C)=O)C(=O)N[C@H]1CSSC[C@@H](C(=O)N[C@H](C(=O)NCC(=O)N[C@@H](C)C(=O)N[C@@H](CCC(=O)O)C(=O)N[C@@H](CO)C(N)=O)[C@@H](C)O)NC(=O)[C@H](CCCNC(=N)N)NC(=O)[C@H](Cc2c[nH]cn2)NC(=O)[C@H](CCC(=O)O)NC(=O)CNC(=O)[C@H](Cc2c[nH]c3ccccc23)NC(=O)[C@H](CC(=O)O)NC(=O)[C@H](CCC(N)=O)NC(=O)[C@H](Cc2ccc3ccccc3c2)NC(=O)[C@H]([C@@H](C)CC)NC1=O
B8: Compound 62 (peptide)
peptide: Ac-YCI[Trp(1-Me)]QDWGEHRCTGAES-NH2
modifications: disulfide 2-12
SMILES: CC[C@H](C)[C@@H]1NC(=O)[C@@H](NC(=O)[C@H](Cc2ccc(O)cc2)NC(C)=O)CSSC[C@@H](C(=O)N[C@H](C(=O)NCC(=O)N[C@@H](C)C(=O)N[C@@H](CCC(=O)O)C(=O)N[C@@H](CO)C(N)=O)[C@@H](C)O)NC(=O)[C@H](CCCNC(=N)N)NC(=O)[C@H](Cc2c[nH]cn2)NC(=O)[C@H](CCC(=O)O)NC(=O)CNC(=O)[C@H](Cc2c[nH]c3ccccc23)NC(=O)[C@H](CC(=O)O)NC(=O)[C@H](CCC(N)=O)NC(=O)[C@H](Cc2cn(C)c3ccccc23)NC1=O
B9: Compound 46 (peptide)
peptide: Ac-ESSAICIWQDWGAHRCT-NH2
modifications: disulfide 6-16
SMILES: CC[C@H](C)[C@H](NC(=O)[C@H](C)NC(=O)[C@H](CO)NC(=O)[C@H](CO)NC(=O)[C@H](CCC(=O)O)NC(C)=O)C(=O)N[C@H]1CSSC[C@@H](C(=O)N[C@H](C(N)=O)[C@@H](C)O)NC(=O)[C@H](CCCNC(=N)N)NC(=O)[C@H](Cc2c[nH]cn2)NC(=O)[C@H](C)NC(=O)CNC(=O)[C@H](Cc2c[nH]c3ccccc23)NC(=O)[C@H](CC(=O)O)NC(=O)[C@H](CCC(N)=O)NC(=O)[C@H](Cc2c[nH]c3ccccc23)NC(=O)[C@H]([C@@H](C)CC)NC1=O
B10: Compound 51 (peptide)
peptide: Ac-ICI[Trp(1-Me)]QDWGEHRCTGAES-NH2
modifications: disulfide 2-12
SMILES: CC[C@H](C)[C@H](NC(C)=O)C(=O)N[C@H]1CSSC[C@@H](C(=O)N[C@H](C(=O)NCC(=O)N[C@@H](C)C(=O)N[C@@H](CCC(=O)O)C(=O)N[C@@H](CO)C(N)=O)[C@@H](C)O)NC(=O)[C@H](CCCNC(=N)N)NC(=O)[C@H](Cc2c[nH]cn2)NC(=O)[C@H](CCC(=O)O)NC(=O)CNC(=O)[C@H](Cc2c[nH]c3ccccc23)NC(=O)[C@H](CC(=O)O)NC(=O)[C@H](CCC(N)=O)NC(=O)[C@H](Cc2cn(C)c3ccccc23)NC(=O)[C@H]([C@@H](C)CC)NC1=O
B11: Compound 64 (peptide)
peptide: Ac-FCI[2Nal]QDWGEHRCTGAES-NH2
modifications: disulfide 2-12
SMILES: CC[C@H](C)[C@@H]1NC(=O)[C@@H](NC(=O)[C@H](Cc2ccccc2)NC(C)=O)CSSC[C@@H](C(=O)N[C@H](C(=O)NCC(=O)N[C@@H](C)C(=O)N[C@@H](CCC(=O)O)C(=O)N[C@@H](CO)C(N)=O)[C@@H](C)O)NC(=O)[C@H](CCCNC(=N)N)NC(=O)[C@H](Cc2c[nH]cn2)NC(=O)[C@H](CCC(=O)O)NC(=O)CNC(=O)[C@H](Cc2c[nH]c3ccccc23)NC(=O)[C@H](CC(=O)O)NC(=O)[C@H](CCC(N)=O)NC(=O)[C@H](Cc2ccc3ccccc3c2)NC1=O
B12: Compound 65 (peptide)
peptide: Ac-YCI[2Nal]QDWGEHRCTGAES-NH2
modifications: disulfide 2-12
SMILES: CC[C@H](C)[C@@H]1NC(=O)[C@@H](NC(=O)[C@H](Cc2ccc(O)cc2)NC(C)=O)CSSC[C@@H](C(=O)N[C@H](C(=O)NCC(=O)N[C@@H](C)C(=O)N[C@@H](CCC(=O)O)C(=O)N[C@@H](CO)C(N)=O)[C@@H](C)O)NC(=O)[C@H](CCCNC(=N)N)NC(=O)[C@H](Cc2c[nH]cn2)NC(=O)[C@H](CCC(=O)O)NC(=O)CNC(=O)[C@H](Cc2c[nH]c3ccccc23)NC(=O)[C@H](CC(=O)O)NC(=O)[C@H](CCC(N)=O)NC(=O)[C@H](Cc2ccc3ccccc3c2)NC1=O
B13: Compound 55 (peptide)
peptide: Ac-EGSAICIWQDWGEHRCTE-NH2
modifications: disulfide 6-16
SMILES: CC[C@H](C)[C@H](NC(=O)[C@H](C)NC(=O)[C@H](CO)NC(=O)CNC(=O)[C@H](CCC(=O)O)NC(C)=O)C(=O)N[C@H]1CSSC[C@@H](C(=O)N[C@H](C(=O)N[C@@H](CCC(=O)O)C(N)=O)[C@@H](C)O)NC(=O)[C@H](CCCNC(=N)N)NC(=O)[C@H](Cc2c[nH]cn2)NC(=O)[C@H](CCC(=O)O)NC(=O)CNC(=O)[C@H](Cc2c[nH]c3ccccc23)NC(=O)[C@H](CC(=O)O)NC(=O)[C@H](CCC(N)=O)NC(=O)[C@H](Cc2c[nH]c3ccccc23)NC(=O)[C@H]([C@@H](C)CC)NC1=O
B14: Compound 58 (peptide)
peptide: Ac-EGSAFCI[Trp(1-Me)]QDWGEHRCEGE-NH2
modifications: disulfide 6-16
SMILES: CC[C@H](C)[C@@H]1NC(=O)[C@@H](NC(=O)[C@H](Cc2ccccc2)NC(=O)[C@H](C)NC(=O)[C@H](CO)NC(=O)CNC(=O)[C@H](CCC(=O)O)NC(C)=O)CSSC[C@@H](C(=O)N[C@@H](CCC(=O)O)C(=O)NCC(=O)N[C@@H](CCC(=O)O)C(N)=O)NC(=O)[C@H](CCCNC(=N)N)NC(=O)[C@H](Cc2c[nH]cn2)NC(=O)[C@H](CCC(=O)O)NC(=O)CNC(=O)[C@H](Cc2c[nH]c3ccccc23)NC(=O)[C@H](CC(=O)O)NC(=O)[C@H](CCC(N)=O)NC(=O)[C@H](Cc2cn(C)c3ccccc23)NC1=O

What follows are binders tested against Human C3 (Complement tech cat #A113c) (human, UniProt P01024 23-1663) (assay: cell-based or functional assay).
Sequence of Human C3 (Complement tech cat #A113c) (P01024 23-1663 limits assumed): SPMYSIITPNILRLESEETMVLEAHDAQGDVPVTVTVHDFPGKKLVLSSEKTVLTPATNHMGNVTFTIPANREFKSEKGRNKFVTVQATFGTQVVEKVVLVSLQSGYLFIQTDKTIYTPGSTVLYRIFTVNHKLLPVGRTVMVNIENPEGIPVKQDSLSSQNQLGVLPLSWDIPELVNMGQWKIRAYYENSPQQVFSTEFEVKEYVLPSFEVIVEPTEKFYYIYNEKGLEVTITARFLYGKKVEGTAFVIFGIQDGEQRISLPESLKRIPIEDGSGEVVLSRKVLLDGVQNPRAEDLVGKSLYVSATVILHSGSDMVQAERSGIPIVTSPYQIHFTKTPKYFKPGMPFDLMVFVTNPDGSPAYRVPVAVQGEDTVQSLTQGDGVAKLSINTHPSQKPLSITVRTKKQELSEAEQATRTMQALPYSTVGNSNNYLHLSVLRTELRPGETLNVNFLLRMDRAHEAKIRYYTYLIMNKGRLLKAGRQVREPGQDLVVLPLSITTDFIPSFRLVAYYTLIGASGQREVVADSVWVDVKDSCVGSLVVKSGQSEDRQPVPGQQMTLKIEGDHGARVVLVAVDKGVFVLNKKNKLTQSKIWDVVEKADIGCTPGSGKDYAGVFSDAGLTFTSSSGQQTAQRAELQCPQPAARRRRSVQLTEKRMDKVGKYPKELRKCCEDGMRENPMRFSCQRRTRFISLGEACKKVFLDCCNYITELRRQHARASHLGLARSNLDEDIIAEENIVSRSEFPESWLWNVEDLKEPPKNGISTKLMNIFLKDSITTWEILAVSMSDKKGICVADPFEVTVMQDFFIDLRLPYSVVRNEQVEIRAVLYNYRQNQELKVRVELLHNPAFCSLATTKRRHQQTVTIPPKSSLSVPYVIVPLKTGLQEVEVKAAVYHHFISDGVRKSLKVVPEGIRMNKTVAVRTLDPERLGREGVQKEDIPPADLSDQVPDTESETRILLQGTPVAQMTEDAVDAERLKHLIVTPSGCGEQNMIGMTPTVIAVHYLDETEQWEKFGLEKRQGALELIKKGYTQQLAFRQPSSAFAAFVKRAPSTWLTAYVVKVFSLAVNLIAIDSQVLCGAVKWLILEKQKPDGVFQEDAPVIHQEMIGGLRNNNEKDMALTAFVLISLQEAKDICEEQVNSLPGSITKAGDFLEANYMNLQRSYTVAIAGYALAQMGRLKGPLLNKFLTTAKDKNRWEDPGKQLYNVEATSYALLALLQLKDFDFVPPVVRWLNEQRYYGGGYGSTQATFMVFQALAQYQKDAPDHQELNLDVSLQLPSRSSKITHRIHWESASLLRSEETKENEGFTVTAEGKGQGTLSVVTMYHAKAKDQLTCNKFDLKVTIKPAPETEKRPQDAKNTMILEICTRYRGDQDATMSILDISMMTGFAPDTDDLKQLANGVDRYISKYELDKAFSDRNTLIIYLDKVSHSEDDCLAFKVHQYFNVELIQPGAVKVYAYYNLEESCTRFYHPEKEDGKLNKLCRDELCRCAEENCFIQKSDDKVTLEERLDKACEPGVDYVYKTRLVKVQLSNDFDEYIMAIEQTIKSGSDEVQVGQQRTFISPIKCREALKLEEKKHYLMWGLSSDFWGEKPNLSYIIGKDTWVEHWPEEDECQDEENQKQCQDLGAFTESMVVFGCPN

Binder	inhibition of hemolysis IC50
B1	< 100 nM
B2	< 100 nM
B3	< 100 nM
B4	< 100 nM
B5	< 100 nM
B6	< 100 nM
B7	< 100 nM
B8	< 100 nM
B9	< 100 nM
B10	< 100 nM
B11	< 100 nM
B12	< 100 nM
B13	< 250 nM
B14	< 100 nM
